The results in this text go back to US11939397B2, “ENTPD2 antibodies, combination therapies, and methods of using the antibodies and combination therapies” (Novartis AG, priority 2018, dated 2024).

The test system of experiment [1] is human ENTPD2 engineered B16LM3 clone B5 tumor. Nature of the experiment: Human ENTPD2 engineered B16LM3 clone B5 xenograft model, combination with A2AR antagonist NIR178. The note with it: NIR178 p.o. 4 days on and 3 days off at either 50 or 200 mg/kg with isotype control 10 mg/kg. It is filed as in vivo. As for the experimental part: Human ENTPD2-engineered B16LM3 clone B5 was established in female C57BL/6 mice by subcutaneous injection of 0.5×10^6 cells into the right flank of each mouse. Once tumors reached approximately 50 mm^3, mice were randomized according to tumor volume into treatment groups (n=8 per group). Mice received an intravenous (i.v.) treatment of either anti-ENTPD2 mAb1 at a final dose of 10/mg/kg or a non-specific human IgG1 isotype control 10 mg/kg on day 1 of study. NIR178 was administered per os (p.o.) for 4 days on and 3 days off, starting at the beginning of study at either 50 mg/kg or 200 mg/kg. All doses were adjusted to individual mouse body weights. The study was carried out for thirteen days post treatment initiation and tumor volumes were assessed every other day to assess efficacy.
A general note: A xenograft is tissue or cells of one species grown in another, often human tumour cells in immunodeficient mice.

Experiment [2] addresses T1, recombinant human ENTPD2 (residues 29-462) (Homo sapiens, UniProt Q9Y5L3).
T1 construct: residues 29-462 of human or cyno ENTPD2 were cloned into expression vector; GP67 signal peptide (N); made in house; host or cells: High Five (Trichoplusia ni) insect cells, baculovirus
T1 sequence (Q9Y5L3 29-462): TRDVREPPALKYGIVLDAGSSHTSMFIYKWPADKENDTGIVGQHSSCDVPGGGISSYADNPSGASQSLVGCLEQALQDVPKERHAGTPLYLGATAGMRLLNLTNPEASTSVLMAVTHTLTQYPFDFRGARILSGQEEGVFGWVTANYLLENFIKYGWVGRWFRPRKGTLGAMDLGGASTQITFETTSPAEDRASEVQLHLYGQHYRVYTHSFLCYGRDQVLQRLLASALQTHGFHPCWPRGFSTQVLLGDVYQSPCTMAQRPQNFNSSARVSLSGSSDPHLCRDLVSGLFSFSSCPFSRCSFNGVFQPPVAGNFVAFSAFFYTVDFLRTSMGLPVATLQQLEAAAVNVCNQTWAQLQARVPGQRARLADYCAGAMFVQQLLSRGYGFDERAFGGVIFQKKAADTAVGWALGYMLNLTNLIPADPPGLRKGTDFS
Description: Biochemical human ENTPD2 functional assay (Transcreener ADP2 TR-FRET). The note with it: FIG. 15. An excerpt:
Biochemical and cell-based functional assays were developed in-house to understand functional impact of anti-ENTPD2 Abs against purified extracellular domain of ENTPD2 (residues 29-462), as well as against the fully intact protein in the context of the native cell-based conformation. ENTPD2 hydrolyzes ATP to ADP, which can subsequently be detected using the HTRF Transcreener ADP2 TR-FRET Red Assay (BellBrook Labs, Madison, WI) where ENTPD2-produced ADP would compete with the ADP Tracer for binding to the anti-ADP-Tb antibody. The resulting signal is inversely proportional to the concentration of ADP in the sample. […]
HTRF signal (Emission at 620 nm and 665 nm) was assessed in both assays using the Envision plate reader in HTRF mode (Perkin Elmer, Waltham, MA). HTRF ratio was determined using the following formula: HTRF ratio=R=Emission at 665 nm/Emission at 620 nm×10,000. Subsequently % Residual Activity and % Inhibition were determined as follows:
Where R0% is the HTRF ratio of the negative control (0% enzyme activity), and R100% is the HTRF ratio of the positive control (100% enzyme activity). Data were analyzed in Microsoft Excel and graphed using GraphPad's Prism 7.0 software and IC50 values were obtained using non-linear regression, log (agonist) vs. response-variable slope (four parameters) analysis.
On the technique in general: In TR-FRET formats the signal depends on donor and acceptor labels being close together.

In a further experiment the target is T2, ENTPD2 (Homo sapiens, UniProt Q9Y5L3).
T2 sequence (Q9Y5L3 1-495): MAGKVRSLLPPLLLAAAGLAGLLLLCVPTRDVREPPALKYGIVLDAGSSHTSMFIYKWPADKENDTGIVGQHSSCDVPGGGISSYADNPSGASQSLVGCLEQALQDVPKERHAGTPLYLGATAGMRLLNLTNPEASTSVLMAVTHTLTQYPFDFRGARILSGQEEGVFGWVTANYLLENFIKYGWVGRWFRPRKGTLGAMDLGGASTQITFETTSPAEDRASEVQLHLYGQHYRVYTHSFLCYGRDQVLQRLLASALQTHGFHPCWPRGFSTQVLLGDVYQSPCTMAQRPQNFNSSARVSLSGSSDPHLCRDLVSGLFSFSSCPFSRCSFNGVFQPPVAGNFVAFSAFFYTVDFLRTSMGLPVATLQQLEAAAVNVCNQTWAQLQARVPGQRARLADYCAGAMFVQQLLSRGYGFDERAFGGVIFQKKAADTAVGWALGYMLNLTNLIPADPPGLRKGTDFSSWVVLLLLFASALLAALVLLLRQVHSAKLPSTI
Description: Hybridoma mAb screen, cell-based assay for inhibition of ATP hydrolysis by ENTPD2. The note with it: hybridoma-derived mAbs. An excerpt:
Hybridoma-derived mAbs were screened in a cell-based assay for inhibition of ATP hydrolysis by ENTPD2.

In the case of `Nc1nc(-n2cccn2)nc(-n2cccn2)c1Br` [NIR178, 5-bromo-2,6-di-(1H-pyrazol-1-yl)pyrimidine-4-amine], in experiment [1], the “anti-tumor efficacy, non-specific isotype control and NIR178” value was “No significant anti-tumor efficacy”.

B1: mAb17: hybridoma-derived lead inhibitory anti-human ENTPD2 mAb (antibody, V domains shown)
VH: EVQLQQFGAELVKPGASVKISCKASGYTFTDYNMDWVKQSHGKSLEWIGDINPKYDISTYNQQFKGKATLTVDKSSSTAYMELRSLTSEDTAVYYCARRGFFLYYGINYYYFDVWGAGTTVTVSS
VL: QIVLTQSPAIMSASLGEEITLTCSASSSVSYIHWYQQKSGTSPTLLIYSTSNLASGVPSRFSGSGSGTFYSLTISSVEAEDAADYYCHQWSSYPWTFGGGTKLEIK
Turning to B1, in experiment [2], the “inhibition of the catalytic activity of the recombinant human ENTPD2” value is “potently inhibit”. Also, the “inhibition of ATP hydrolysis by ENTPD2 (screen outcome)” value with ENTPD2 is “lead inhibitory”.
